According to PMC10557681:

Target: recombinant WU2 (r)PspA possessing only αHD and PRD (Streptococcus pneumoniae serotype 3 strain WU2)
Experiment: SPR

For “recombinant lactoferrin (LF) (from UniProt P02788 20-710) (natural protein)”, the Kd was 3.89 nM.
